Results as given in the DeepSol protein solubility set.

Assay: soluble on expression in E. coli; label from the status in PepcDB or PDB records

With “MNGSADAGPRPRKYVFITGGVVSSLGKGILTSSLGALLRARGYRVTAIKIDPYVNVDAGTMRPYEHGEVFVTADGAETDLDIGHYERFLDMDLSRGNNLTTGQVYLSVIQKERRGEYLSQTVQVIPHITDEIKERIRKVAEEQKAEIVVVEVGGTVGDIESLPFLEAIRQFRFDEGEGNTLYLHLTLVPYLETSEEFKTKPTQHSVATLRGVGIQPDILVLRSARPVPEEVRRKVALFTNVRPGHVFSSPTVEHLYEVPLLLEEQGLGRAVERALGLEAVIPNLSFWQEAVRVLKHPERTVKIAIAGKYVKMPDAYLSLLEALRHAGIKNRARVEVKWVDAESLEAADLDEAFRDVSGILVPGGFGVRGIEGKVRAAQYARERKIPYLGICLGLQIAVIEFARNVAGLKGANSTEFDPHTPHPVIDLMPEQLEVEGLGGTMRLGDWPMRIKPGTLLHRLYGKEEVLERHRHRYEVNPLYVDGLERAGLVVSATTPGMRGRGAGLVEAIELKDHPFFLGLQSHPEFKSRPMRPSPPFVGFVEAALAYQERA” the “soluble on expression in E. coli” value was “soluble”.

With “MDTTYGPPAPALSGLTLGIREYSLFQAVLLVIDRLRDAHPHLSEDDLYDQLEFQANPSLGFPSSDVSRVEFFHEHGQMRARMQFNLIGLVGSGSPLPAFYGEQALGDSEDGNPTRNFLDLFHHRLQRLMLPIWKKYRYRASFESGALDPFSAQLFALIGLGGEEIRRAQELNWKRLLPYLGLLSLRAHSAALIEAVLRYYFKHAELTIEQCIERRVEILDEQRNRLGSANSMLGEDLVLGDHVRDRSGKFRIHIRELDWQRFHEFLPIGFGYQPLCALVRFTLRDPLDYDIRLVLRQEEIRELRIGEQNACRLGWTSWLGREKADGVVTLGSKIH” the “soluble on expression in E. coli” value was “not soluble”.

With “MGSDKIHHHHHHMTMTDERPVLVATEADDITADMVITELNRRDVPVVRFNLADIGEGLTVSARFGTCPAPVVGQVRTSSRTADLTRVRSVYWRRPEWPSFPHLSPDDSRFAAAQVRYGLGGTLYALDHPLWVNHPLRIAAADYKPAQLALAQQLGFTIPTTLVTNDPAEAREFIRTQGDVIFKTLRWTPYTRDGVPVTGWADPVTADEIDDNVRITPHLFQARVDKVTDLRVLIVGQHTFAVRIDSELLDWRRDYSVLTYTVEHLPDSVDKALHAYLDRLELVSGSFDLTVDRAGVYWWLELNPNGQWGWLEKETGLPMSAAFADLLVQGDRQ” the “soluble on expression in E. coli” value was “not soluble”.

With “MFNFEKFWQHFNDEMRARFNEVAYNAWFKNTKPISYNQKTHELKIQVQNPVAKGYWEKNLSSQLIQSAYGYAGVELLPVFQISEDSDTPERIVTPEPQHNLQTTPTRAPQREFAKDLKLNEKYTFDNFVQGEGNKLAAGAALAVADSPGSFYNPLFIFGGVGLGKTHLMQAIGHQMLVERPNAKVVYIQSETFVNDFINSIKNKTQDKFREKYRTCDLLLVDDIQFFAKKEGIQEEFFHTFETLYNDQKQIVMTSDRLPTEIPDLSERLVSRFTWGLQVEITPPDLETRIAILRRKAEAEGLTIDDDTLDYIASQVDTNIRELEGALVKVQAYATIEKADIDINLAREALVDLKLVQKNRGLQIPKIQEVVANYFQTSTAELKGKKRVRQIVIPRQIAMYLSRELTDASLPKIGQEFGGKDHTTVMHAYDKIDKQMKTDADIKTAVFDLKQMLEHLEHHHHHH” the “soluble on expression in E. coli” value was “not soluble”.

With “MSLTNIEEFMPEKLAKAIANPLFPELDSLLRSGRHVASEDLDNHALLCEFEHELGLFYQRYNAELVKAPEGFFYLRPRSTSFIARSVLAEIDMLVGKVLCFLYLSPERLAHEGIFTNQELFDELLVLADEQKLMKLVTNRASGSDLDKEKLFDKVRTSLRRLKRLGMIIPVGEQGKFRISEAVFRFGADVRTSDDMKEAQLRLIRDGEAVVVHQEEASQSSLDLDADSNEKPAEEQHELELEGDLLEHHHHHH” the “soluble on expression in E. coli” value was “soluble”.

For “MGHHHHHHSHMTGRLDELEKAITTQNCNTKCVTIPSTCSEIWGLSTPNTIDQWDTTGLYSFSEQTRSLDGRLQVSHRKGLPHVIYCRLWRWPDLHSHHELKAIENCEYAFNLKKDEVCVNPYHYQRVETPVLPPVLVPRHTEILTELPPLDDYTHSIPE”, the “soluble on expression in E. coli” value was “soluble”.

For “MGSCMKWDYGEMEDFSVSASGLFITNEGNFQYSNATLSYYDPATCEVENEVFYRANGFKLGDVAQSMVIRDGIGWIVVNNSHVIFAIDINTFKEVGRITGFTSPRYIHFLSDEKAYVTQIWDYRIFIINPKTYEITGYIECPDMDMESGSTEQMVQYGKYVYVNCWSYQNRILKIDTETDKVVDELTIGIQPTSLVMDKYNKMWTITDGGYEGSPYGYEAPSLYRIDAETFTVEKQFKFKLGDWPSEVQLNGTRDTLYWINNDIWRMPVEADRVPVRPFLEFRDTKYYGLTVNPNNGEVYVADAIDYQQQGIVYRYSPQGKLIDEFYVGLEHHHHHH”, the “soluble on expression in E. coli” value was “soluble”.

With “MSLSQRGLEALLRPKSIAVIGASMKPNRAGYLMMRNLLAGGFNGPVLPVTPAWKAVLGVLAWPDIASLPFTPDLAVLCTNASRNLALLEELGEKGCKTCIILSAPASQHEDLRACALRHNMRLLGPNSLGLLAPWQGLNASFSPVPIKRGKLAFISQSAAVSNTILDWAQQRKMGFSYFIALGDSLDIDVDELLDYLARDSKTSAILLYLEQLSDARRFVSAARSASRNKPILVIKSGRSPAAQRLLNTTAGMDPAWDAAIQRAGLLRVQDTHELFSAVETLSHMRPLRGDRLMIISNGAAPAALALDALWSRNGKLATLSEETCQKLRDALPEHVAISNPLDLRDDASSEHYIKTLDILLHSQDFDALMVIHSPSAAAPATESAQVLIEAVKHHPRSKYVSLLTNWCGEHSSQEARRLFSEAGLPTYRTPEGTITAFMHMVEYRRNQKQLRETPALPSNLTSNTAEAHLLLQQAIAEGATSLDTHEVQPILQAYGMNTLPTWIASDSTEAVHIAEQIGYPVALKLRSPDIPHKSEVQGVMLYLRTANEVQQAANAIFDRVKMAWPQARVHGLLVQSMANRAGAQELRVVVEHDPVFGPLIMLGEGGVEWRPEDQAVVALPPLNMNLARYLVIQGIKSKKIRARSALRPLDVAGLSQLLVQVSNLIVDCPEIQRLDIHPLLASGSEFTALDVTLDISPFEGDNESRLAVRPYPHQLEEWVELKNGERCLFRPILPEDEPQLQQFISRVTKEDLYYRYFSEINEFTHEDLANMTQIDYDREMAFVAVRRIDQTEEILGVTRAISDPDNIDAEFAVLVRSDLKGLGLGRRLMEKLITYTRDHGLQRLNGITMPNNRGMVALARKLGFNVDIQLEEGIVGLTLNLAQREESEGGSHHHHHH” the “soluble on expression in E. coli” value was “soluble”.

In the case of “MGSSHHHHHHSSGLVPRGSKTFIIGISGVTNSGKTTLAKNLQKHLPNCSVISQDDFFKPESEIETDKNGFLQYDVLEALNMEKMMSAISCWMESARHSVVSTDQESAEEIPILIIEGFLLFNYKPLDTIWNRSYFLTIPYEECKRRRSTRVYQPPDSPGYFDGHVWPMYLKYRQEMQDITWEVVYLDGTKSEEDLFLQVYEDLIQEL”, the “soluble on expression in E. coli” value was “soluble”.

For “GMTALRQDIDPNGLLEYSVVYTDRALNHMSKAFQEVMNDLLSNLKTVYNAEAAVIIPGSGTYGMEAVARQLTIDEDCLIIRNGWFSYRWTQILEKGKFAKSSTVLTAERTEDTEAPKPFAPVDIETAVAKIKEDKSAIVYAPHVETSSGIILSEEYIKALSEAVHSVGGLLVIDCIASGCVWLDMKELGIDVLISAPQKGWSSTPCAGLVMLSAAAIKKVESTESNCFSLDLKQWLTIMRAYENGGHAYHATMPTDSLRQFRDAILEAKEIGFDILRDAQWELGNRVRKVLTDKGIESVAAEGFEAPGVVVSYTERDDMHKGSAFAEAGLQIAAGVPLKVGEPDNFKTFRLGLFGLDKLTDIDGTVERFEKALDEVLAK”, the “soluble on expression in E. coli” value was “soluble”.

In the case of “MGSDKIHHHHHHMEETFQLLYDTYHQDLYQFLFYMVKDKNQTEDLLQEVYIRVLNSYHTFEGRSSEKTWLLSIARHVAIDWFRKQQTIRQRILGTFDWDTQDVRDQQLLPDELAVQHENVREISCALDQCTIDQRAVIILRFIQGYSIQETAKALRFSESKVKTTQHRGLKVLRKHMELLREELMDDEVRMERRTDKGVVKSTSGS”, the “soluble on expression in E. coli” value was “not soluble”.

In the case of “NPYETFRIADELRRELVGDTVTYVVNRNINFTDICINDCKFCSFRNRKKYLLSLDEIKQKVEEAVEFGCTELCIQGGLLPDADLDFYLSILQAVRDVDKKIHIHAFSPMEVVHAARNSGMTVEEVLKELKKEGLGSMPGTAAEILDDSIRALICPRKLKTAEWVEVIKTAHRVGIPTTATIMYGHIDTWEHRINHLLLIKKIQQETGGITELIPLPFMSKNNELGRYAKGSSGFDDLLMIAIARILLYPEIKNIQASWVKMGQKLAQAALHVGANDLGGTLMEENISKSAGATSGEFMHPEELRELIKIAGRVPKQR”, the “soluble on expression in E. coli” value was “not soluble”.

With “MSDALLAPLNEAQRQAVLHFEGPALVVAGAGSGKTRTVVHRVAYLVARRGVFPSEILAVTFTNKAAEEMRERLRGLVPGAGEVWVSTFHAAALRILRVYGERVGLRPGFVVYDEDDQTALLKEVLKELALSARPGPIKALLDRAKNRGVGLKALLGELPEYYAGLSRGRLGDVLVRYQEALKAQGALDFGDILLYALRLLEEDEEVLRLVRKRARFIHVDEYQDTSPVQYRFTRLLAGEEANLMAVGDPDQGIYSFRAADIKNILDFTRDYPEARVYRLEENYRSTEAILRFANAVIVKNALRLEKALRPVKRGGEPVRLYRAEDAREEARFVAEEIARLGPPWDRYAVLYRTNAQSRLLEQALAGRGIPARVVGGVGFFERAEVKDLLAYARLALNPLDAVSLKRVLNTPPRGIGPATWARVQLLAQEKGLPPWEALKEAARTFSRPEPLRHFVALVEELQDLVFGPAEAFFRHLLEATDYPAYLREAYPEDAEDRLENVEELLRAAKEAEDLQDFLDRVALTAKAEEPAEAEGRVALMTLHNAKGLEFPVVFLVGVEEGLLPHRNSVSTLEGLEEERRLFYVGITRAQERLYLSHAEEREVYGRREPARPSRFLEEVEEGLYEVYDPYRRPPSPPPHRPRPGAFRGGERVVHPRFGPGTVVAAQGDEVTVHFEGFGLKRLSLKYAELKPA” the “soluble on expression in E. coli” value was “soluble”.

With “MILQEAKIRAKELEIGAKSKYENETSKVIKEYESYLIKLEKQEAKNQQRLERETQQLEEERRRINHKQASLSGMIEELEKLKGDYRSKLTESLEILSRVAGLTQEEAKELALAKATEESRAQIAQIVRKYESEAKEEGRKRANYILAQATTRFAGEFAAERLINVVNLPNDELKGRIIGKEGRNIKTLEMLSGVDVIIDDTPGAIVLSSFNLYRRAIATRTIEALVEDGRIQPARIEEVYKKVEQEFEEKVLEEGEGIVLDMELGYVHPELKKLIGRLKYRASYGQNALGHSLEVANLAGVIAGELGGDVKLAKRAGLLHDIGKALTHDFGGSHVDLGAEVCSRYKEHPVVINAIFAHHGHEEAKSIESAAVCAADALSAARPGARREVLESFLKRVQEIEKIAMEKLGVRQAYAINAGREVRVIVNADLINDEESVLLAQEIAKEIETKVQYPGEIKVSVIREVRAVEFAK” the “soluble on expression in E. coli” value was “not soluble”.

In the case of “EAQTETCTVAPRERQNCGFPGVTPSQCANKGCCFDDTVRGVPWCFYPNTIDVPPEEESEF”, the “soluble on expression in E. coli” value was “soluble”.

For “MAHHHHHHMVHWVISQFTTNVGLQQKSSIELLNEANREYESSSPFSVLVQHERAVERLTTAQRGLAASGAGSLARLDRDQLPSWTLRVIDEDCTMCFDNVTYASAVAADAGRSTNKTGHHKQKGLSVFATTSAPLGLMGPMLFAMASVTDDVDVAAELPRWQWVTWSYAQQRRFVHASQSRSTGERPRHLIVLGIPSTDQPMRYPLRDAQRATWLTYREVARTENNFTGALLQLYVFAAAEHDSEDSTHSAVDMVQLAPTVSEYAAATEQHLAVEAGDVNNAPPYLQRRVVLRDGWRDIPRSDDAVWRSPCAGVRTTVVTAASLVAGTSSLAALSAQLSLPVTPAFTAAAQYVCHVSAALWQEALHHRNSLWLDFLTDRKPTTKKKMGMSISWGIPTEVGMSQKTVLWLNYAYTAFPDVPYIMKGDDDMYLKVPQYLSDLRHVRGGWQKPRNLTVTIPHRGVIPPTLAIDDAEECLYRVWWTYSKKIAYGNGVGYILDRRLIQAALNPFDGFNALLMKLLTNPYDYRLEKEYLSLNMQYEDMHIGKQIRDHHDAVERFCPKKRVCYMADRRFRAHQILRPKPVKLTWISVMAHFGMPAIPYYVHYFHKNEFKVAEEAKRLIAQGIDAKTIEENATQRMHEWVASQVPSTLVGLGASFHLDWVRGDPHTAYTVAEEDEVAVYDVRYKLRRRNDVACVLESGKR”, the “soluble on expression in E. coli” value was “not soluble”.
